In patent publication US20260035464A1 (STAIDSON BIOPHARMA, published 2026):

Tests used:
[1] = target: T1, human BTLA (Uniprot Q7Z6A9) expressed on cells (human, UniProt Q7Z6A9 31-289); test: flow cytometry on huBTLA-overexpressing Expi293 cells, MFI
T1 construct: whole, on cells; also called huBTLA-overexpressing Expi293 cells
Method: Expi293 cells stably overexpressing huBTLA were incubated with the chimeric anti-BTLA antibodies 83F2 or 86B7 in PBS containing 0.5% BSA, 1 mM EDTA, and 0.1% sodium azide (FACS buffer) for 30 minutes at 4° C. The cells were washed, and then incubated with 10 nM phycoerythrin (PE) conjugated anti-Human Fc Ab (BioLegend, cat #409304) for 20 minutes at 4° C. Cells were washed and then analyzed by flow cytometry with Attune (ThermoFisher Scientific). Data were analyzed with FlowJo software. Antibody binding is represented as median fluorescence intensity (MFI).
FACS based binding assays of humanized anti-BTLA antibodies were performed as described above in Example 3.

[2] = target: T2, human BTLA extracellular domain with C-terminal 10xHis tag (human, UniProt Q7Z6A9 31-157); test: BLI (Octet RED96), antibody on AHC biosensor, His-tag-huBTLA in solution
T2 construct: also called HuBTLA-His; His-tag-huBTLA
T2 sequence: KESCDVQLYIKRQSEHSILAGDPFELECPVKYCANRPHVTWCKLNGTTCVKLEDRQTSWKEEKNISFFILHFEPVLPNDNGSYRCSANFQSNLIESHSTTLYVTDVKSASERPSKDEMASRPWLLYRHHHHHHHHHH
Method: (§1) The following kinetic assay was performed using anti-human IgG Fc capture (AHC) biosensors (ForteBio) in kinetics buffer (PBS, 0.1% Tween-20 and 1% bovine serum albumin): (a) antibody (2 μg/mL) for 300 sec, (b) baseline for 120 sec, (c) association with purified His-tag-huBTLA (2.5, 0.5 and 0 μg/mL) and His-tag-rhesus monkey BTLA (Sino Biologcal, cat #90250-C08H) (2.5, 0.5 and 0 μg/mL) for 420 sec and (d) dissociation for 1200 sec. Data fitting and analysis was performed with Octet data analysis software 8.0 (ForteBio) using a 1:1 binding model after Savitzky-Golay filtering.
(§2) Binding affinities (monovalent Kd) of humanized anti-BTLA antibodies were determined using Biolayer interferometry on the Octet RED96 instrument (ForteBio) as described above in Example 3, except for (c) association with His-tag-huBTLA ([…]) for 420 sec.

[3] = target: T2, human BTLA extracellular domain with …; test: BLI (Octet RED96), antibody on AHC biosensor, His-tag-huBTLA in solution; column head prints nM, but Koff/Kon shows the values are in M
Method: as §1, §2

[4] = target: T1, human BTLA (Uniprot Q7Z6A9) expressed …; test: flow cytometry blocking assay on huBTLA-overexpressing Expi293 cells, antibody titrated, soluble human HVEM-mouse IgG2a Fc detected
Method: Expi293 cells stably overexpressing huBTLA were incubated with chimeric anti-BTLA antibody 83F2 or 86B7 for 30 minutes at 4° C. The cells were washed, and then incubated with human HVEM-mouse IgG2a Fc recombinant protein (Acro Biosystems, cat #HVM-H5255) at […] concentration for 20 minutes at 4° C. The human HVEM bindings were detected by goat anti-mouse Alexa 488 secondary antibody (ThermoFisher, cat #A-11029). Cells were washed and acquired by flow cytometry with Attune. Data were analyzed with FlowJo software. BTLA binding is represented as MFI.
FACS based blocking assays of humanized anti-BTLA antibodies were performed as described above in Example 3.

[5] = target: T3, extracellular domain of human BTLA with FAS, expressed on Jurkat cells (human, UniProt Q7Z6A9 31-157; P25445 174-335, limits assumed); test: cell-based or functional assay
T3 sequence (looked up): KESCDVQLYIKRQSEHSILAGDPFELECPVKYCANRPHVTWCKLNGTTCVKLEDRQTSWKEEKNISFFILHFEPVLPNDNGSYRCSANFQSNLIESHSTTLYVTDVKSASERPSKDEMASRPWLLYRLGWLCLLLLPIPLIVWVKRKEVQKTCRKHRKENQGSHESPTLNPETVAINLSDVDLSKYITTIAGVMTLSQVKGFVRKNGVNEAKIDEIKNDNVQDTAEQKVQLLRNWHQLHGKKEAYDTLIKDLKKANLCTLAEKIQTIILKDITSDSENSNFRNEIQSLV

[6] = target: T1, human BTLA (Uniprot Q7Z6A9) expressed …; test: cell-based or functional assay

Row | Binder | EC50 (read off the curve) [1] [nM] | koff [2] [s⁻¹] | kon [2] [M⁻¹ s⁻¹] | Kd [3] [nM] | IC50 (read off the curve) [4] [nM] | EC50 of inhibition of huHVEM-Fc-induced apoptosis, Jurkat-huBTLA-FAS cells (ATP luminescence) [5] [nM] | EC50 of recovery of IL-2 production, Raji-HVEM/primary human T cell coculture [6] [nM]
1 | humanized anti-BTLA antibody SB2003-4 (antibody, V domains shown) VH: QITLKESGPTLVKPTQTLTLTCTFSGFSLSTFGMGVSWIRQPPGKALEWLAHIYWDDDKRFNPSLKSRLTITKDTSKNQVVLTMTNMDPVDTATYYCARGNWDGETYFDYWGQGTLVTVSS VL: DVVMTQSPLSLPVTLGQPASISCKSTQSLLDSDGKTYLNWLQQRPGQSPRSLIYLVSKLDSGVPDRFSGSGSGTDFTLKISRVEAEDVGVYYCWQGTHFPWTFGQGTKVEIK | ~0.8 | 9.19e-05 | 307000 | 0.312 | ~0.4 |  | 
2 | humanized anti-BTLA antibody SB2003-11 (antibody, V domains shown) VH: QVTLKESGPTLVKPTQTLTLTCTFSGFSLSTFGMGVSWIRQPPGKALEWLAHIYWDDDKRFNPSLKSRLTITKDTSKNQVVLTMTNMDPVDTATYYCAHGNWDGETYFDYWGQGTLVTVSS VL: DVVMTQSPLSLPVTLGQPASISCKSTQSLLDSDGKTYLNWFQQRPGQSPRSLIYLVSKLDSGVPDRFSGSGSGTDFTLKISRVEAEDVGVYYCWQGTHFPWTFGQGTKVEIK | ~0.8 | 4.99e-05 | 384000 | 0.128 | ~0.4 | 0.117 | 2.31
3 | humanized anti-BTLA antibody SB2003-3 (antibody, V domains shown) VH: QITLKESGPTLVKPTQTLTLTCTFSGFSLSTFGMGVSWIRQPPGKALEWLAHIYWDDDKRFNPSLKSRLTITKDTSKNQVVLTMTNMDPVDTATYYCARGNWDGETYFDYWGQGTLVTVSS VL: DVVMTQSPLSLPVTLGQPASISCKSTQSLLDSDGKTYLNWFQQRPGQSPRSLIYLVSKLDSGVPDRFSGSGSGTDFTLKISRVEAEDVGVYYCWQGTHFPWTFGQGTKVEIK | ~0.8 | 9.48e-05 | 291000 | 0.308 | ~0.4 |  | 
4 | humanized anti-BTLA antibody SB2003-6 (antibody, V domains shown) VH: QVTLKESGPTLVKPTQTLTLTCTFSGFSLSTFGMGVSWIRQPPGKALEWLAHIYWDDDKRFNPSLKSRLTITKDTSKNQVVLTMTNMDPVDTATYYCARGNWDGETYFDYWGQGTLVTVSS VL: DVVMTQSPLSLPVTLGQPASISCKSTQSLLDSDGKTYLNWLQQRPGQSPRRLIYLVSKLDSGVPDRFSGSGSGTDFTLKISRVEAEDVGVYYCWQGTHFPWTFGQGTKVEIK |  | 8.06e-05 | 134000 | 0.604 |  |  | 
5 | humanized anti-BTLA antibody SB2003-10 (antibody, V domains shown) VH: QITLKESGPTLVKPTQTLTLTCTFSGFSLSTFGMGVSWIRQPPGKALEWLAHIYWDDDKRFNPSLKSRLTITKDTSKNQVVLTMTNMDPVDTATYYCAHGNWDGETYFDYWGQGTLVTVSS VL: DVVMTQSPLSLPVTLGQPASISCKSTQSLLDSDGKTYLNWLQQRPGQSPRSLIYLVSKLDSGVPDRFSGSGSGTDFTLKISRVEAEDVGVYYCWQGTHFPWTFGQGTKVEIK |  | 0.000179 | 356000 | 0.551 |  |  | 

Continued, values first:

Row | EC50 (read off the curve) [1] [nM] | koff [2] [s⁻¹] | kon [2] [M⁻¹ s⁻¹] | Kd [3] [nM] | IC50 (read off the curve) [4] [nM] | EC50 of inhibition of huHVEM-Fc-induced apoptosis, Jurkat-huBTLA-FAS cells (ATP luminescence) [5] [nM] | EC50 of recovery of IL-2 production, Raji-HVEM/primary human T cell coculture [6] [nM] | Binder
6 |  | 6.5e-05 | 440000 | 0.148 |  |  |  | humanized anti-BTLA antibody SB2003-9 (antibody, V domains shown) VH: QITLKESGPTLVKPTQTLTLTCTFSGFSLSTFGMGVSWIRQPPGKALEWLAHIYWDDDKRFNPSLKSRLTITKDTSKNQVVLTMTNMDPVDTATYYCAHGNWDGETYFDYWGQGTLVTVSS VL: DVVMTQSPLSLPVTLGQPASISCKSTQSLLDSDGKTYLNWFQQRPGQSPRSLIYLVSKLDSGVPDRFSGSGSGTDFTLKISRVEAEDVGVYYCWQGTHFPWTFGQGTKVEIK
7 |  | 8.05e-05 | 418000 | 0.198 |  |  |  | humanized anti-BTLA antibody SB2003-8 (antibody, V domains shown) VH: QVTLKESGPTLVKPTQTLTLTCTFSGFSLSTFGMGVSWIRQPPGKALEWLAHIYWDDDKRFNPSLKSRLTITKDTSKNQVVLTMTNMDPVDTATYYCARGNWDGETYFDYWGQGTLVTVSS VL: DVVMTQSPLSLPVTLGQPASISCKSTQSLLDSDGKTYLNWLQQRPGQSPRSLIYLVSKLDSGVPDRFSGSGSGTDFTLKISRVEAEDVGVYYCWQGTHFPWTFGQGTKVEIK
8 |  | 0.000109 | 120000 | 0.797 |  |  |  | humanized anti-BTLA antibody SB2003-2 (antibody, V domains shown) VH: QITLKESGPTLVKPTQTLTLTCTFSGFSLSTFGMGVSWIRQPPGKALEWLAHIYWDDDKRFNPSLKSRLTITKDTSKNQVVLTMTNMDPVDTATYYCARGNWDGETYFDYWGQGTLVTVSS VL: DVVMTQSPLSLPVTLGQPASISCKSTQSLLDSDGKTYLNWLQQRPGQSPRRLIYLVSKLDSGVPDRFSGSGSGTDFTLKISRVEAEDVGVYYCWQGTHFPWTFGQGTKVEIK
9 |  | 5.76e-05 | 366000 | 0.154 |  |  |  | humanized anti-BTLA antibody SB2003-7 (antibody, V domains shown) VH: QVTLKESGPTLVKPTQTLTLTCTFSGFSLSTFGMGVSWIRQPPGKALEWLAHIYWDDDKRFNPSLKSRLTITKDTSKNQVVLTMTNMDPVDTATYYCARGNWDGETYFDYWGQGTLVTVSS VL: DVVMTQSPLSLPVTLGQPASISCKSTQSLLDSDGKTYLNWFQQRPGQSPRSLIYLVSKLDSGVPDRFSGSGSGTDFTLKISRVEAEDVGVYYCWQGTHFPWTFGQGTKVEIK
